For data set [1], the target named is T1, human UCH37 isoform 1, co-expressed with NFRKB (human, UniProt Q9Y5K5 1-329).
T1 sequence (looked up): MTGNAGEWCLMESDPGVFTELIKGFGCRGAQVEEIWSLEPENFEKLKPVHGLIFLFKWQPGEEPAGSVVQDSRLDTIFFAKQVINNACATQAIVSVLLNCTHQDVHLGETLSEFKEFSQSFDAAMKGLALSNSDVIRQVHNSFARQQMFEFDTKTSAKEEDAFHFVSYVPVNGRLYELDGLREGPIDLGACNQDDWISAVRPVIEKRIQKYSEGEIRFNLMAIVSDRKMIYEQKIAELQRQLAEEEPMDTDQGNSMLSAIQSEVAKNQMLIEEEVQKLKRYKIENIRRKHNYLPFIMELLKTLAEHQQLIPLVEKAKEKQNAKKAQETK
Nature of the data set: cell-based or functional assay.

Data set [2] has as its target T2, human UCH37 (isoform 1), full-length (human, UniProt Q9Y5K5 1-329).
T2 sequence (looked up): T1 sequence (looked up)
The data set can be described thus: cell-based or functional assay.

A further data set has as its target T3, UCH37(M148A,F149A) (human, UniProt Q9Y5K5 1-329, M148A | F149A).
T3 sequence (looked up): T1 sequence (looked up) with M148A, F149A
The data set can be described thus: cell-based or functional assay.

A further data set concerns the target T4, human UCH37 isoform 2 (human, UniProt Q9Y5K5 1-329, deleting the codon for E246).
T4 sequence (looked up): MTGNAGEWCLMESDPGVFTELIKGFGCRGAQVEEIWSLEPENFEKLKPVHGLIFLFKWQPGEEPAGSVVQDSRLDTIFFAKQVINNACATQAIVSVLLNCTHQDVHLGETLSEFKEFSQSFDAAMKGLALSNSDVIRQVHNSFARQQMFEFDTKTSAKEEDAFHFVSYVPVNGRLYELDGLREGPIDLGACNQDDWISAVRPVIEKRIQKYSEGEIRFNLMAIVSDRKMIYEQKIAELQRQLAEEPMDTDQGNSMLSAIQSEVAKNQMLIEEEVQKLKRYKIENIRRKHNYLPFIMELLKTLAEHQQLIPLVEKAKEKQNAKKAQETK
The data set can be described thus: cell-based or functional assay.

The target in the next data set is human ubiquitin (human, UniProt P0CG48 1-76). The data set can be described thus: cell-based or functional assay.
The data set “AUC” deals with the molecule itself. The data set can be described thus: AUC.

Substitutions are numbered along the chain they refer to. In names and notes the source's numbering stands.

B1: NFRKB^1-156 (domain or fragment, human, UniProt Q6P4R8 1-156, looked up)
chain: MDSLDHMLTDPLELGPCGDGHGTRIMEDCLLGGTRVSLPEDLLEDPEIFFDVVSLSTWQEVLSDSQREHLQQFLPQFPEDSAEQQNELILALFSGENFRFGNPLHIAQKLFRDGHFNPEVVKYRQLCFKSQYKRYLNSQQQYFHRLLKQILASRSD
On to B1, for which, in data set [1], the “kcat of ubiquitin-AMC hydrolysis by the UCH37/NFRKB^1-156 complex” value was found to be 0.1 s⁻¹ and the “kcat/Km of ubiquitin-AMC hydrolysis by the UCH37/NFRKB^1-156 complex” value was 0.006 s^−1μM^−1.

B2: NFRKB^1-156(^97GSGS^100) (domain or fragment, human, UniProt Q6P4R8 1-156, looked up)
chain: B1 chain with N97G, F98S, R99G, F100S
B2: in data set [1], the “kcat of ubiquitin-AMC hydrolysis by the UCH37/NFRKB^1-156(^97GSGS^100) complex” value came out at 5.94 s⁻¹.

B3: NFRKB^1-117 (domain or fragment, human, UniProt Q6P4R8 1-117, looked up)
chain: MDSLDHMLTDPLELGPCGDGHGTRIMEDCLLGGTRVSLPEDLLEDPEIFFDVVSLSTWQEVLSDSQREHLQQFLPQFPEDSAEQQNELILALFSGENFRFGNPLHIAQKLFRDGHFN
As for B3, in data set [1], the “kcat of ubiquitin-AMC hydrolysis by the UCH37/NFRKB^1-117 complex” value is 0.15 s⁻¹ and the “kcat/Km of ubiquitin-AMC hydrolysis by the UCH37/NFRKB^1-117 complex” value stood at 0.005 s^−1μM^−1.

B4: human RPN13^285-407 (domain or fragment)
chain: GSWTQVDLASVLTPEIMAPILANADVQERLLPYLPSGESLPQTADEIQNTLTSPQFQQALGMFSAALASGQLGPLMCQFGLPAEAVEAANKGDVEAFAKAMQNNAKPEQKEGDTKDKKDEEEDMSLD
For the molecule B4, in data set [2], the “kcat of ubiquitin-AMC hydrolysis by the UCH37/RPN13^285-407 complex” value is 5 s⁻¹ and the “kcat/Km of ubiquitin-AMC hydrolysis by the UCH37/RPN13^285-407 complex” value came to 1.6 s^−1μM^−1. In the data set with UCH37(M148A,F149A), the “kcat of ubiquitin-AMC hydrolysis by the UCH37(M148A,F149A)/RPN13^285-407 complex” value was 4.7 s⁻¹. For the same molecule, in the data set with human UCH37 isoform 2, the “kcat of ubiquitin-AMC hydrolysis by the UCH37(isoform2)/RPN13^285-407 complex” value amounted to 4.7 s⁻¹ and the “kcat/Km of ubiquitin-AMC hydrolysis by the UCH37(isoform2)/RPN13^285-407 complex” value worked out at 1.4 s^−1μM^−1.

B5: RPN13(Q337A,Q338A)^285-407 (domain or fragment, human)
chain: B4 chain with Q57A, Q58A
B5: the “kcat of ubiquitin-AMC hydrolysis by the UCH37/RPN13(Q337A,Q338A)^285-407 complex” value in the data set with human ubiquitin came out at 4.7 s⁻¹.

B6: UCH37(M269E,N291D) (enzyme, human, UniProt Q9Y5K5 1-329, looked up)
chain: T1 sequence (looked up) with M269E, N291D
One may read the Kd as the equilibrium constant for the complex coming apart. Read a low Kd as tighter binding. For the molecule B6, in the data set “AUC”, the dissociation constant Kd was 49 µM.

B7: NFRKB^39-156 (domain or fragment, human, UniProt Q6P4R8 39-156, looked up)
chain: PEDLLEDPEIFFDVVSLSTWQEVLSDSQREHLQQFLPQFPEDSAEQQNELILALFSGENFRFGNPLHIAQKLFRDGHFNPEVVKYRQLCFKSQYKRYLNSQQQYFHRLLKQILASRSD
As for B7, in data set [1], the “kcat of ubiquitin-AMC hydrolysis by the UCH37/NFRKB^39-156 complex” value was 0.25 s⁻¹ and the “kcat/Km of ubiquitin-AMC hydrolysis by the UCH37/NFRKB^39-156 complex” value came out at 0.009 s^−1μM^−1.

Values taken from PMC4355076 (Molecular cell, 2015).
